A word on the Kd: it is a measure of binding affinity in units of concentration. Read a high Kd as a looser complex.

These results are taken from US20130071393A1 (published 2013).

Where a chain is given by its changes, count along the chain named.

The target in experiment [1] is T1, GDF11 (UniProt O95390 299-407).
T1 construct: Ligand used in the reporter gene and BiaCore assays; construct not described; also called Growth and Differentiation Factor-11; BMP11
T1 sequence (looked up): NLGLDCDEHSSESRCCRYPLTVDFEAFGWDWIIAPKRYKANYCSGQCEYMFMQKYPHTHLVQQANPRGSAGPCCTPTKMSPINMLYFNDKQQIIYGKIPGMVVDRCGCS
Briefly: cell-based or functional assay.

Experiment [2] deals with T2, Activin A (UniProt P08476 311-426).
T2 construct: also called ActA
T2 sequence (looked up): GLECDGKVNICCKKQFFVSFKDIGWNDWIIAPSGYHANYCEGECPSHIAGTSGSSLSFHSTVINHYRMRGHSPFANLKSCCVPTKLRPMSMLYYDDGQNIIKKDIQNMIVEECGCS
Nature of the experiment: cell-based or functional assay.

The target of experiment [3] is T1, GDF11. Briefly: BiaCore; ligand coupled to the device, receptor-Fc flowed over. Background: Surface plasmon resonance follows binding to a sensor surface in real time, without labels.
Experiment [4] has as its target T2, Activin A. Described as above.
Experiment [5] has as its target T1, GDF11. Briefly: BiaCore; ligand coupled, receptor-Fc flowed over; legend: -- = <⅕ WT binding.

The molecule “ActRIIB-Fc A64 20-134 (from UniProt Q13705 20-134) (Fc fusion)” showed a KI, GDF11 Inhibition Activity (cell based assay) in experiment [1] of 1000 nM. In experiment [2], this molecule came in with a KI, Activin Inhibition Activity (cell based assay) of 1000 nM.

B1: Soluble ActRIIB-Fc D54A (Fc fusion, UniProt Q13705 19-119, looked up)
chain: SGRGEAETRECIYYNANWELERTNQSGLERCEGEQAKRLHCYASWANSSGTIELVKKGCWLDDFNCYDRQECVATEENPQVYFCCCEGNFCNERFTHLPEA
notes: T0019 variant; whole entry named; not shown: Fc domain
As to B1, the binding result in experiment [3] is recorded as “no binding”.

B2: Soluble ActRIIB-Fc K74I (Fc fusion, UniProt Q13705 19-119, looked up)
chain: B1 chain with A36D, K56I
notes: as for B1
As to B2, the binding result in experiment [4] was “no binding”. For the same molecule, the “binding relative to WT” value in experiment [5] is less than 0.2 fold.

B3: Soluble ActRIIB-Fc K74Y (Fc fusion, UniProt Q13705 19-119, looked up)
chain: B1 chain with A36D, K56Y
notes: as for B1
Turning to B3, in experiment [4], the binding result is “no binding”. In addition, the “binding relative to WT” value in experiment [5] was less than 0.2 fold.

B4: Soluble ActRIIB-Fc D80F (Fc fusion, UniProt Q13705 19-119, looked up)
chain: B1 chain with A36D, D62F
notes: as for B1
For the molecule B4, the binding result in experiment [3] and in experiment [4] was “no binding” in each case.

B5: Soluble ActRIIB-Fc D80G (Fc fusion, UniProt Q13705 19-119, looked up)
chain: B1 chain with A36D, D62G
notes: as for B1
Take B5: the binding result in experiment [3] and in experiment [4] was “no binding” each time.

B6: Soluble ActRIIB-Fc R56A (Fc fusion, UniProt Q13705 19-119, looked up)
chain: B1 chain with A36D, R38A
notes: as for B1
In the case of B6, the binding result in experiment [3] and in experiment [4] was “no binding” throughout.

B7: Soluble ActRIIB-Fc K74F (Fc fusion, UniProt Q13705 19-119, looked up)
chain: B1 chain with A36D, K56F
notes: as for B1
For B7, the binding result in experiment [4] is recorded as “no binding”. In experiment [5], the “binding relative to WT” value was less than 0.2 fold.

B8: Soluble ActRIIB-Fc L79A (Fc fusion, UniProt Q13705 19-119, looked up)
chain: B1 chain with A36D, L61A
notes: as for B1
As to B8, the binding result in experiment [3] is “no binding”.

B9: Soluble ActRIIB-Fc D80R (Fc fusion, UniProt Q13705 19-119, looked up)
chain: B1 chain with A36D, D62R
notes: as for B1
Take B9: the binding result in experiment [3] and in experiment [4] was “no binding” each time.

B10: Soluble ActRIIB-Fc D80A (Fc fusion, UniProt Q13705 19-119, looked up)
chain: B1 chain with A36D, D62A
notes: as for B1
For B10, the binding result in experiment [3] and in experiment [4] was “no binding” each time.

B11: Soluble ActRIIB-Fc D80N (Fc fusion, UniProt Q13705 19-119, looked up)
chain: B1 chain with A36D, D62N
notes: as for B1
In the case of B11, the binding result in experiment [3] and in experiment [4] was “no binding” throughout.

B12: Soluble ActRIIB-Fc D80K (Fc fusion, UniProt Q13705 19-119, looked up)
chain: B1 chain with A36D, D62K
notes: as for B1
With B12, the binding result in experiment [3] and in experiment [4] was “no binding” throughout.

B13: Soluble ActRIIB-Fc W78A (Fc fusion, UniProt Q13705 19-119, looked up)
chain: B1 chain with A36D, W60A
notes: as for B1
B13: the binding result in experiment [3] and in experiment [4] was “no binding” each time.

B14: Soluble ActRIIB-Fc WT (64R) (Fc fusion, UniProt Q13705 19-119, looked up)
chain: B1 chain with A36D, A46R
notes: as for B1
The molecule B14 showed a Kd in experiment [3] of 86 nM.

B15: Soluble ActRIIB-Fc D80I (Fc fusion, UniProt Q13705 19-119, looked up)
chain: B1 chain with A36D, D62I
notes: as for B1
As for B15, the binding result in experiment [4] was “no binding”. Moreover, the “binding relative to WT” value in experiment [5] was less than 0.2 fold.

B16: Soluble ActRIIB-Fc K74A (Fc fusion, UniProt Q13705 19-119, looked up)
chain: B1 chain with A36D, K56A
notes: as for B1
For B16, the Kd was 5.3 nM in experiment [3] and 4.35 nM in experiment [4].

B17: Soluble ActRIIB-Fc E37A (Fc fusion, UniProt Q13705 19-119, looked up)
chain: B1 chain with E19A, A36D
notes: as for B1
Take B17: the binding result in experiment [3] and in experiment [4] was “no binding” each time.

B18: Soluble ActRIIB-Fc D80M (Fc fusion, UniProt Q13705 19-119, looked up)
chain: B1 chain with A36D, D62M
notes: as for B1
On to B18, for which the binding result in experiment [3] and in experiment [4] was “no binding” throughout.

B19: Soluble ActRIIB-Fc K55A (Fc fusion, UniProt Q13705 19-119, looked up)
chain: B1 chain with A36D, K37A
notes: as for B1
As to B19, the binding result in experiment [3] was “no binding”.
